# Entries after “also recorded” stand apart in the source; their conditions may differ.
# B1: CRT-2: fragment (1-349 aa) of recombinantly expressed CRT, amino acid sequence SEQ ID NO: 9 (protein)
# chain: EPAVYFKEQFLDGDGWTSRWIESKHKSDFGKFVLSSGKFYGDEEKDKGLQTSQDARFYALSASFEPFSNKGQTLVVQFTVKHEQNIDCGGGYVKLFPNSLDQTDMHGDSEYNIMFGPDICGPGTKKVHVIFNYKGKNVLINKDIRCKDDEFTHLYTLIVRPDNTYEVKIDNSQVESGSLEDDWDFLPPKKIKDPDASKPEDWDERAKIDDPTDSKPEDWDKPEHIPDPDAKKPEDWDEEMDGEWEPPVIQNPEYKGEWKPRQIDNPDYKGTWIHPEIDNPEYSPDPSIYAYDNFGVLGLDLWQVKSGTIFDNFLITNDEAYAEEFGNETWGVTKAAEKQMKDKQDEEQR
# Tested on: AGA (androgenic alopecia) model mice
# Assay: Third experiment: hair growth score in DHT-induced AGA model mice
# Format: in vivo, C57BL/6N male mice
# Conditions: Day 17, P<0.05
# Description: C57BL/6N male mice, 6-7 weeks old, weighing (18-20) g, 50 mice, with the animal license number of SCXK (Beijing) 2021-0006, were kept in a 12 h light/12 h dark environment, with free access to food and water. Adaptive feeding was performed for about 1 week.
# The hair in an area of about 2 cm×3 cm at the border of the spine was shaved using an electric shaver. The depilatory area was applied with 8% sodium sulfide solution. After 90±10 s, the depilatory area on the back was cleaned with cotton balls dipped in water, the residual sodium sulfide was washed away with a washing bottle, and then the mice were wiped dry. Because the hair follicle cycle of mice was in the resting phase at this time, the mouse skin was pink. Mice were randomly divided into groups using Excel software, 10 mice in each group, and the modeling was established after 24 h and the drug was administered for 17 consecutive days. The AGA model was established by injecting dihydrotestosterone into the experimental mice. Dihydrotestosterone (DHT) solution was injected subcutaneously at multiple points every day, 100 μL/mouse (5 mg/kg body weight), and then the drug was administered after 3 h of absorption. CRT-2 and CRT-1 protein solutions were applied externally. 100 μL of protein solution was applied, and 100 μl of minoxidil MNX was applied. The CRT and MNX combination group was first applied with CRT-2 protein solution and then MNX 2 hours later. The solvent formula comprised 50% ethanol, 20% propylene glycol, and 30% pure water.
# Scoring was based on the coverage of hair growth: • 0 points: no hair growth, pink in the hair removal area; • 1 point: gray in the hair removal area, hair coverage area E<20%; • 2 points: black in the hair removal area, hair coverage area 20%<E<40%; • 3 points: black in the hair removal area with a little hair growth, hair coverage area 40%<E<60%; • 4 points: black in the hair removal area with some hair growth, hair coverage area 60%<E<80%; • 5 points: black in the hair removal area, hair coverage area 80%<E<100%.
# The skin color changes of mice were observed before administration every day. The hair removal time of mice was designated as Day 0, the first day of administration was designated as Day 1, and so on. The hair growth of each mouse was recorded and analyzed on Day 7, Day 9, Day 11, Day 13, Day 15, and Day 17.
molecule,measurement,setting,value
B1,hair growth score compared with the Model group,"external application 100 μL, CRT 0.35 mg/ml, MNX 5 mg/ml",significantly increased
same,hair growth score compared with the CRT-1 group,external application,better than; also recorded: significantly increased

# From patent US20250000944A1, “USE OF RECOMBINANT CALRETICULIN IN HAIR GROWTH, HAIR BREEDING, HAIR PROTECTION OR ANTI-HAIR LOSS AND RELATED PRODUCT” (BEIJING YITUBAIHUI BIOTECH CO., LTD, priority 2021, published 2025)
